# Experimental data: patent publication US20210301025A1 (published 2021)
# Numbering of substitutions follows the chain as printed. Names and notes keep the numbering of the source.
# B1: P114AR7P94-A3 (designed binder, not shown: small tags and cut ends)
# chain: LPAPKNLVVSRVTEDSARLSWTAPDAAFDSFWIRYFEFLGSGEAIVLTVPGSERSYDLTGLKPGTEYVVNIMGVKGGKISPPLSAIFTT
# B2: P114AR7P95-D4 (designed binder, not shown: small tags and cut ends)
# chain: B1 chain with N70Q, M72L, K78Y, P81I
# B3: P114AR7P95-E3 (designed binder, not shown: small tags and cut ends)
# chain: B1 chain with N70Q, K78T, I79V
# B4: P114AR7P92-G8 (designed binder, not shown: small tags and cut ends)
# chain: B1 chain with W32V, N70Q, M72L, K78Y, P81I
# B5: P114AR7P93-G8 (designed binder, not shown: small tags and cut ends)
# chain: B1 chain with G60D, V68G, N70T, M72N, K78R, I79V, P81T
# B6: P114AR7P95-H8 (designed binder, not shown: small tags and cut ends)
# chain: B1 chain with L39V, G40S, S41K, K78S
# B7: P114AR7P92-F6 (designed binder, not shown: small tags and cut ends)
# chain: B1 chain with M72L, K78G, I79L, P81V
# B8: P114AR7P93-D11 (designed binder, not shown: small tags and cut ends)
# chain: B1 chain with N70G, M72N, K78Y, P81Y
# B9: P114AR7P94-E5 (designed binder, not shown: small tags and cut ends)
# chain: B1 chain with V68A, K78R, I79V, P81V
# B10: P114AR7P95-G7 (designed binder, not shown: small tags and cut ends)
# chain: B1 chain with F38L, G40S, S41T, K78S
# B11: P114AR7P92-H5 (designed binder, not shown: small tags and cut ends)
# chain: B1 chain with F36L, G40L, S41G, N70Q, K78T, I79V
# B12: P114AR7P95-F10 (designed binder, not shown: small tags and cut ends)
# chain: B1 chain with L39T, G40T, S41A, K78S
# B13: P114AR7P93-H9 (designed binder, not shown: small tags and cut ends)
# chain: B1 chain with N70Q, M72I, K78H, P81L
# B14: ECB95 (designed binder, not shown: small tags and cut ends)
# chain: MLPAPKNLVVSEVTEDSARLSWDDPWAFYESFLIQYQESEKVGEAIVLTVPGSERSYDLTGLKPGTEYTVSIYGVHNVYKDTNIRGLPLSAIFTTAPAPAPAPAPLPAPKNLVVSRVTEDSARLSWTAPDAAFDSFWIRYFEFVGSGEAIVLTVPGSERSYDLTGLKPGTEYVVNILGVKGGSISPPLSAIFTT
# notes: Bispecific: P54AR4-83v22, (AP)5, P114AR9P121-A6v2
# B15: ECB94 (designed binder, not shown: small tags and cut ends)
# chain: B14 chain with V144L, S183K
# notes: Bispecific: P54AR4-83v22, (AP)5, P114AR7P94-A3v22
# B16: ECB15 (designed binder, not shown: small tags and cut ends)
# chain: B14 chain with I84M, V144L, L177M, S183K
# B17: P114AR7P95-D3 (designed binder, not shown: small tags and cut ends)
# chain: B1 chain with K78S, P81Y
# B18: P114AR7P95-B9 (designed binder, not shown: small tags and cut ends)
# chain: B1 chain with N70Q, M72L, K78S, P81V
# B19: P114AR7P92-F3 (designed binder, not shown: small tags and cut ends)
# chain: B1 chain with V68I, K78S, P81H
# B20: P114AR5P75-E9 (designed binder, not shown: small tags and cut ends)
# chain: B1 chain with W32F, F36D, G40R, V68W, N70T, M72L, K78L, I79V, P81T
# B21: P54AR4-83v2 V49C, NEM conjugate (designed binder, not shown: small tags and cut ends)
# chain: LPAPKNLVVSEVTEDSARLSWDDPWAFYESFLIQYQESEKVGEAIVLTCPGSERSYDLTGLKPGTEYTVSIYGVHNVYKDTNMRGLPLSAIFTT
# modifications: N-ethyl maleimide (NEM) on Cys 49
# B22: P54AR4-83v2 Y28C, NEM conjugate (designed binder, not shown: small tags and cut ends)
# chain: B21 chain with Y28C, C49V
# modifications: N-ethyl maleimide (NEM) on Cys 28
# B23: P54AR4-83v2 Y78C, NEM conjugate (designed binder, not shown: small tags and cut ends)
# chain: B21 chain with C49V, Y78C
# modifications: N-ethyl maleimide (NEM) on Cys 78
# B24: P54AR4-83v2 V77C, NEM conjugate (designed binder, not shown: small tags and cut ends)
# chain: B21 chain with C49V, V77C
# modifications: N-ethyl maleimide (NEM) on Cys 77
# B25: P54AR4-83v2 W25C, NEM conjugate (designed binder, not shown: small tags and cut ends)
# chain: B21 chain with W25C, C49V
# modifications: N-ethyl maleimide (NEM) on Cys 25
# B26: P54AR4-83v2 Y72C, NEM conjugate (designed binder, not shown: small tags and cut ends)
# chain: B21 chain with C49V, Y72C
# modifications: N-ethyl maleimide (NEM) on Cys 72
# B27: P54AR4-83v2 V74C, NEM conjugate (designed binder, not shown: small tags and cut ends)
# chain: B21 chain with C49V, V74C
# modifications: N-ethyl maleimide (NEM) on Cys 74
# Molecular target: T1, human c-Met on cells (NCI-H441, NCI-H292, U87-MG) (human, UniProt P08581 25-1390)
# T1 construct: Endogenous c-Met of human tumor cell lines; also called hepatocyte growth factor receptor
# Experiment: NCI-H441 cell binding, anti-His fluorescence
# Experimental: Purified FN3 domains (50 μL/well; 0 to 1000 nM) were added to the cells for 1 hour at 4° C. in duplicate plates. Supernatant was removed and cells were washed three times with FACS stain buffer (150 μL/well, BD Biosciences, cat #554657). Cells were incubated with biotinylated-anti HIS antibody (diluted 1:160 in FACS stain buffer, 50 μL/well, R&D Systems, cat # BAM050) for 30 minutes at 4° C. Cells were washed three times with FACS stain buffer (150 μL/well), after which wells were incubated with anti mouse IgG1-Alexa 488 conjugated antibody (diluted 1:80 in FACS stain buffer, 50 μL/well, Life Technologies, cat # A21121) for 30 minutes at 4° C. Cells were washed three times with FACS stain buffer (150 μL/well) and left in FACS stain buffer (50 μL/well). Total fluorescence was determined using an Acumen eX3 reader. Data were plotted as raw fluorescence signal against the logarithm of the FN3 domain molar concentration and fitted to a sigmoidal dose-response curve with variable slope using GraphPad Prism 4 (GraphPad Software) to calculate EC₅₀ values.
row,Binder,EC50 [nM]
1,B1,1.4
2,B2,1.4
3,B3,3.2
4,B4,5.9
5,B5,3.8
6,B6,4.1
7,B7,4.9
8,B8,2.3
9,B9,3.4
10,B10,11.3
11,B11,22
12,B12,4.4
13,B13,12.9

# Molecular target: T2, recombinant human extracellular domain of EGFR fused to an IgG1 Fc (human, UniProt P00533 25-645)
# T2 construct: Bought (R&D Systems); captured on anti-human Fc IgG for SPR; also called EGFR-Fc
# Experiment: SPR (ProteOn) per Example 3
# Source text: (§1) Select EGFR/c-Met molecules were characterized for their affinity to both EGFR and c-Met, their ability to inhibit EGFR and c-Met autophosphorylation, and their effect on proliferation of HGF cells. Binding affinity of the bispecific EGFR/c-Met molecules to recombinant EGFR and/or c-Met extracellular domain was further by surface Plasmon resonance methods using a Proteon Instrument (BioRad) according to protocol described in Example 3.
row,Binder,Kd [nM]
1,B14,1.1
2,B15,1
3,B16,0.2

# Molecular target: T3, recombinant c-Met extracellular domain (human, UniProt P08581 16-932)
# T3 construct: Construct used for SPR is not described further (may be the Fc chimera, as the protocol captures on anti-human Fc)
# Experiment: SPR (ProteOn) per Example 3
# Source text: as §1
row,Binder,Kd [nM]
1,B14,6.2
2,B15,4.3
3,B16,2.6

# Molecular target: T1, human c-Met on cells (NCI-H441, …)
# Experiment: cell-based or functional assay
row,Binder,pMet inhibition in H441 cells IC50 [nM]
1,B14,179
2,B15,53.8

# Molecular target: human EGFR on cells (A431, NCI-H292, NCI-H322, NCI-H441) (human, UniProt P00533 25-1210)
# Experiment: cell-based or functional assay
row,Binder,pEGFR inhibition in H292 cells IC50 [nM]
1,B14,13.6
2,B15,5.1
3,B16,4.2

# Molecular target: T1, human c-Met on cells (NCI-H441, …)
# Experiment: cell-based or functional assay
# Remark: another data set of the same source
Binder,pMet inhibition in H441 cells IC50,Inhibition of proliferation of U87-MG cells IC50 [nM]
B17,4.6 nM,–
B18,9.8 nM,17.4
B1,5 nM,9.3
B2,19.5 nM,19.4
B3,205 nM,209
B19,8.3 nM,2.7
B4,155 nM,124
B20,1.42 µM,1190
B5,460 nM,104
B6,210 nM,281
B7,165 nM,350
B8,16 nM,14.4
B9,124 nM,196
B10,659 nM,692
B11,766 nM,672
B12,188 nM,130
B13,288 nM,270

# Molecular target: T4, EGFR (form used in the assay not stated) (human, UniProt P00533 25-645, limits assumed)
# Experiment: ELISA, NEM conjugate, 500 nM
row,Binder,binding relative to P54AR4-83v2 parent [ratio]
1,B21,0.98
2,B22,0.09
3,B23,0.68
4,B24,0.03
5,B25,0.7
6,B26,0.93
7,B27,0.95

# Molecular target: T5, Recombinant human c-Met Fc chimera (human, UniProt P08581 16-932)
# T5 construct: whole c-Met entry named; also called c-Met-Fc fusion protein
# Experiment: competition with biotinylated HGF on plate-coated c-Met-Fc
row,Binder,IC50 [nM]
1,B17,0.2
2,B18,0.3
3,B1,0.2
4,B19,0.2
5,B4,1.6
6,B20,51.9
7,B5,1
8,B7,2.2
9,B9,0.7
10,B12,1.4
11,B13,2.9

# Molecular target: T4, EGFR (form used in the assay not stated)
# Experiment: ELISA, NEM conjugate, 10 nM
row,Binder,binding relative to P54AR4-83v2 parent [ratio]
1,B21,0.96
2,B22,0
3,B23,0.31
4,B24,0.03
5,B25,0.38
6,B26,0.93
7,B27,0.76

# Molecular target: T3, recombinant c-Met extracellular domain
# Experiment: SPR kinetic analysis as in Example 2
row,Binder,Kd [nM]
1,B17,0.3
2,B1,0.4
3,B2,0.4
4,B19,0.4
5,B4,1
6,B20,45.8
7,B5,6.9
8,B6,3.7
9,B7,3.1
10,B9,4.2
11,B10,20
12,B11,11.6
13,B12,4.2
14,B13,3.3

# Molecular target: T4, EGFR (form used in the assay not stated)
# Experiment: ELISA, NEM conjugate, 100 nM
row,Binder,binding relative to P54AR4-83v2 parent [ratio]
1,B21,1.01
2,B22,0.01
3,B23,0.63
4,B24,0
5,B25,0.64
6,B26,1
7,B27,1.01
